# Assay results as given in publication PMC10485164, “Sequence-specific targeting of Caenorhabditis elegans C-Ala to the D-loop of tRNAAla”.
# Changes are numbered by the printed parent chain.
# T1: Ce-C-Alac (C-Ala of cytoplasmic AlaRS) (Caenorhabditis elegans, UniProt O01541 757-968)
# T1 sequence: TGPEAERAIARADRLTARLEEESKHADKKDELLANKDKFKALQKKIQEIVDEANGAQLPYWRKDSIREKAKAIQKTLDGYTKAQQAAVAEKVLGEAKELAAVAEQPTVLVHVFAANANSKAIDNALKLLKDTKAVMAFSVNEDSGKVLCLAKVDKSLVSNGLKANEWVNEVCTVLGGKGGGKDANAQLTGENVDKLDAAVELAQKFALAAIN
# T2: Ce-C-Alac helical subdomain (HS) (Caenorhabditis elegans, UniProt O01541 757-858)
# T2 sequence: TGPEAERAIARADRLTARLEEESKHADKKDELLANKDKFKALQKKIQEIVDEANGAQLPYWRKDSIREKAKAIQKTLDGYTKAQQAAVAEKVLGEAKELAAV
# T3: Ce-C-Alac globular subdomain (GS) (Caenorhabditis elegans, UniProt O01541 859-968)
# T3 sequence: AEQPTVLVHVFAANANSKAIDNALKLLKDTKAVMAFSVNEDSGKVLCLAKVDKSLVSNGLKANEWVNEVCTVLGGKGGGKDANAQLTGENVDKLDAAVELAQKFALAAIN
# B1: CetRNAnAla (structured_RNA)
# RNA: GGGGGUAUAGCUCAGUGGUAGAGCGCUCCCUUAGCAUGGGAGAGGGCUGGGGUUCAAUUCCCCAUACCUCCACCA
# B2: CetRNAnAla A14G15 mutant (to GA) (structured_RNA)
# RNA: B1 RNA with A14G, G15A
# B3: CetRNAnAla G18G19C56 mutant (structured_RNA)
# RNA: B1 RNA with G17A, G18A, C55U
# B4: CetRNAnAla A14G15C48 mutant (structured_RNA)
# RNA: B1 RNA with A14G, G15A, C47U
# B5: DLmAla mut (CetRNAnAla with D-loop of CetRNAmAla) (structured_RNA)
# RNA: GGGGGUAUAGCUCAAUAAGAGCGCUCCCUUAGCAUGGGAGAGGGCUGGGGUUCAAUUCCCCAUACCUCCACCA
# B6: CetRNAmAla (structured_RNA)
# RNA: GGGAUUUUAGUUUAAUAAAAAUAUAUGUUUUGCAUACAUAAGAUAAUAAUUCUACCA
# B7: SctRNAnGly (structured_RNA)
# RNA: GCGCAAGUGGUUUAGUGGUAAAAUCCAACGUUGCCAUCGUUGGGCCCCCGGUUCGAUUCCGGGCUUGCGCACCA
# Assays:
# [1] = test system: Ce-C-Alam (C-Ala of mitochondrial AlaRS) (Caenorhabditis elegans); assay: EMSA; settings: 5 mM Mg2+; EMSA: 20 mM Hepes pH 7.5, 20 mM KCl, 5 mM MgCl2, 2 mM DTT, 10 min on ice, 0.1 uM ligand; 5% native PAGE in 0.5x TBE at 4 C; protein 0.125-32 uM
# [2] = test system: CeAlaRSm (mitochondrial AlaRS) (Caenorhabditis elegans); assay: EMSA; settings: 5 mM Mg2+; EMSA: 20 mM Hepes pH 7.5, 20 mM KCl, 5 mM MgCl2, 2 mM DTT, 10 min on ice, 0.1 uM ligand; 5% native PAGE in 0.5x TBE at 4 C; protein 0.125-32 uM
# [3] = test system: CeAlaRSm(ΔC) (Caenorhabditis elegans); assay: EMSA; settings: 5 mM Mg2+; EMSA: 20 mM Hepes pH 7.5, 20 mM KCl, 5 mM MgCl2, 2 mM DTT, 10 min on ice, 0.1 uM ligand; 5% native PAGE in 0.5x TBE at 4 C; protein 0.125-32 uM
# [4] = target: T1, Ce-C-Alac (C-Ala of cytoplasmic AlaRS); assay: EMSA; 5 mM Mg2+; EMSA: 20 mM Hepes pH 7.5, 20 mM KCl, 5 mM MgCl2, 2 mM DTT, 10 min on ice, 0.1 uM ligand; 5% native PAGE in 0.5x TBE at 4 C; protein 0.125-32 uM; settings: protein: recombinant, tags: His6 (C-terminal, pET21b), label: 5'-32P
# [5] = target: T2, Ce-C-Alac helical subdomain (HS); assay: as above; settings: protein: recombinant, tags: His6 (C-terminal, pET21b), label: 5'-32P
# [6] = target: T3, Ce-C-Alac globular subdomain (GS); assay: as above; settings: protein: recombinant, tags: His6 (C-terminal, pET21b), label: 5'-32P
# [7] = target: T1, Ce-C-Alac (C-Ala of cytoplasmic AlaRS); assay: as above; settings: protein: recombinant; tags: His6 (C-terminal, pET21b); label: 5'-32P; two hairpins
molecule,measurement,setting,value
GGGAUUUUAGUUUAGUGGUAAAAUAUAUGUUUUGCAUACAUAAGAUAAUAAUUCUACCA [DLnAla mut (CetRNAmAla with D-loop of CetRNAnAla)],Kd,[1],4000 nM
same,Kd,[2],1000 nM
same,Kd,[3],> 32000 nM
GGGGGUAUAGCUCAGUGGUAGAGCGCUCCCUUAGCAUGGGAGAGGGCUGGGGUUCAAUUCCCCAUACCUCCACCA [CetRNAnAla],binding signal (fold lower affinity than CetRNAmAla),[1],7.5
GGGAUUUUAGUUUAAUAAAAAUAUAUGUUUUGCAUACAUAAGAUAAUAAUUCUACCA [CetRNAmAla],Kd,[1],200 nM
same,Kd,[2],200 nM
same,Kd,[3],> 32000 nM
B1,Kd,[4]; tRNA cloverleaf,800 nM
same,Kd,[5]; tRNA cloverleaf,2000 nM
same,Kd,[6]; tRNA cloverleaf,500 nM
B2,Kd,"[4]; tRNA, conformation disrupted",10000 nM
B3,Kd,[4]; tRNA,8000 nM
B4,Kd,[4]; tRNA,2000 nM
B5,Kd,[4]; tRNA,6500 nM
B6,Kd,[4]; tRNA,4500 nM
GGGGGUAUGGGGUUCAAUUCCCCAUACCUCCACCA (structured_RNA) [minihelix (T-arm-acceptor stem of CetRNAnAla)],Kd,[5]; hairpin,11000 ± 100 nM
same,Kd,[6]; hairpin,9000 ± 200 nM
GCUCCCUGGUAGAGCGCUCCCUUAGCAUGGGAG (structured_RNA) [biloop AG mutant (A14G15 to CC)],binding signal,[7],4 fold lower affinity than WT biloop
GCUCAGUGGUAGAGCGCUCCCUUAGCAUGGGAG (structured_RNA) [biloop (D-arm-anticodon arm of CetRNAnAla)],Kd,[4]; two hairpins,2000 nM
same,Kd,[5]; two hairpins,6000 ± 400 nM
same,Kd,[6]; two hairpins,2000 ± 400 nM
B7,Kd,[4]; tRNA cloverleaf,900 nM
